Measured values as given in patent US20250152729A1 (CANCER RESEARCH TECHNOLOGY, published 2025).
Changes are numbered by the printed parent chain. Numbers in names are those of the source.

T1: human SEMA4A expressed on cells (UniProt ID Q9H3S1, isoform 1) (human, UniProt Q9H3S1 33-761)
T1 sequence: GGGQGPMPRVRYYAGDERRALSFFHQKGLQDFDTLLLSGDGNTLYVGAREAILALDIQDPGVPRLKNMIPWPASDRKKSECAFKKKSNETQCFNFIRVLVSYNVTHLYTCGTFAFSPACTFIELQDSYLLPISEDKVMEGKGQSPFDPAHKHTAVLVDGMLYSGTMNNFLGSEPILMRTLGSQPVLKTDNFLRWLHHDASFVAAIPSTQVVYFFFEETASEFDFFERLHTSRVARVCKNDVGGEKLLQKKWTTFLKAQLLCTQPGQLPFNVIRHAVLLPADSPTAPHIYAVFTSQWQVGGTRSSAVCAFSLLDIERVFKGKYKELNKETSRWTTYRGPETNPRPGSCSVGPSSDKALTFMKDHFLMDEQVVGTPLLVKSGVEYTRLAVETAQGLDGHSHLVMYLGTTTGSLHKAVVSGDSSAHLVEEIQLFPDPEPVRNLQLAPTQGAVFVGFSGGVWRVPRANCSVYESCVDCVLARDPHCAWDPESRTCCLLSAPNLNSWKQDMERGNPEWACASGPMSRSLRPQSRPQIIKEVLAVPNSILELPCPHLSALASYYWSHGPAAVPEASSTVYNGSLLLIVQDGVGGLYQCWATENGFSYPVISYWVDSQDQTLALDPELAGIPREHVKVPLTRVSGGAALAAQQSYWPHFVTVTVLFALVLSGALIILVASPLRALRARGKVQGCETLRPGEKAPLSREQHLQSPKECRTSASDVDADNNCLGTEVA

T2: mouse SEMA4A expressed on expi293 cells (UniProt ID Q62178) (mouse, UniProt Q62178 33-760)
T2 construct: Transient transfection in expi293 cells
T2 sequence: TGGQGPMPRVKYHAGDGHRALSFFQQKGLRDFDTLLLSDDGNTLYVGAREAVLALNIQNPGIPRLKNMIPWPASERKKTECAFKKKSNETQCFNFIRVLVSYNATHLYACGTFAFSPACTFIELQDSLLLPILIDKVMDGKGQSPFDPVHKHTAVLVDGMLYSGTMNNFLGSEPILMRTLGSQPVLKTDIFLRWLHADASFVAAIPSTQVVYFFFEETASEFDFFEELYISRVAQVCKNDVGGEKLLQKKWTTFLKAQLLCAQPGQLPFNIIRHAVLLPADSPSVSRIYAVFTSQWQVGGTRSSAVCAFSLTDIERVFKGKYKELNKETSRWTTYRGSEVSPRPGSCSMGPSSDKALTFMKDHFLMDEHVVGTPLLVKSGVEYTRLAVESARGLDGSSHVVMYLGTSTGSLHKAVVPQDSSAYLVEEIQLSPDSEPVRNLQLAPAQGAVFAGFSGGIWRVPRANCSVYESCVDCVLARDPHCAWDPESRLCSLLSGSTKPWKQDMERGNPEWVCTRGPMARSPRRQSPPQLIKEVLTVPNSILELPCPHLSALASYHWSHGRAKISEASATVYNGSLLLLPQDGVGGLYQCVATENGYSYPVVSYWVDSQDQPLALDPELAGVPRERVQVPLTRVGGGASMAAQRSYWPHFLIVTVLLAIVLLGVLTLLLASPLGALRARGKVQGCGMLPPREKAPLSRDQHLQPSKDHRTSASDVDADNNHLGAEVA

B1: 5Hg2-5Lg1 human Alya IgG1 (antibody, V domains shown)
VH: QVQLVQSGAEVKKPGASVKVSCKASGYTFTDYWMHWVRQAPGQRLEWMGAIDTSDSYTSYNQKFKGRVTITRDTSASTAYMELSSLRSEDTAVYYCARDYGNFYYYAMDYWGQGTLVTVSS
VL: QAVVTQEPSLTVSPGGTVTLTCRSSTGAVTTSNYANWFQQKPGQAPRTLIYGTNNRAPWTPARFSGSLLGGKAALTLSGAQPEDEAEYYCALWYSNHWVFGGGTKLTVL
notes: Humanised 5E3; human IgG1 Alya constant (239iCys, S442C, EU), lambda light chain; purified, unconjugated
B2: 5Hg2-5Lg3 human Alya IgG1 (antibody, V domains shown)
VH: B1 VH
VL: QTVVTQEPSFSVSPGGTVTLTCRSSTGAVTTSNYANWYQQTPGQAPRTLIYGTNNRAPGVPDRFSGSILGNKAALTITGAQADDESDYYCALWYSNHWVFGGGTKLTVL
notes: as for B1
B3: 5Hg1-5Lg2 human Alya IgG1 (antibody, V domains shown)
VH: B1 VH with R44G, I70M, A76T, A79V
VL: B1 VL with S78L
notes: as for B1
B4: 5Hg1-5Lg1 human Alya IgG1 (antibody, V domains shown)
VH: B1 VH with R44G, I70M, A76T, A79V
VL: B1 VL
notes: as for B1
B5: 5Hg2-5Lg2 human Alya IgG1 (antibody, V domains shown)
VH: B1 VH
VL: B1 VL with S78L
notes: as for B1
B6: 5Hg4-5Lg5 human Alya IgG1 (antibody, V domains shown)
VH: QVQLVQSGSELKKPGASVKVSCKASGYTFTDYWMHWVRQAPGQGLEWMGAIDTSDSYTSYNQKFKGRFVFSLDTSVSTAYLQICSLKAEDTAVYYCARDYGNFYYYAMDYWGQGTLVTVSS
VL: QSVVTQPPSVSGAPGQRVTISCRSSTGAVTTSNYANWYQQLPGTAPKLLIYGTNNRAPGVPDRFSGSKSGASASLAITGLQAEDEADYYCALWYSNHWVFGGGTKLTVL
notes: as for B1
B7: C0120917 human Alya IgG1 (antibody, V domains shown)
VH: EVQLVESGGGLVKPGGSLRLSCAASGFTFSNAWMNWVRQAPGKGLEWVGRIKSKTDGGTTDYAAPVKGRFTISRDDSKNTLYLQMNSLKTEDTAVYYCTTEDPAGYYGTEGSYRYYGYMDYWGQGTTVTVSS
VL: NFMLTQPHSVSESPGKTVTISCTASGDTLDNKYVNWYQVRPGSAPATLIFHYEERDSGVPDRFSGSFDASSNSASLTISGLQTADEADYFCQSYDSKRDNLVVFGGGTKVTVL
notes: Fully human, phage display derived; human IgG1 Alya constant (239iCys, S442C, EU); unconjugated
B8: C0120905 human Alya IgG1 (antibody, V domains shown)
VH: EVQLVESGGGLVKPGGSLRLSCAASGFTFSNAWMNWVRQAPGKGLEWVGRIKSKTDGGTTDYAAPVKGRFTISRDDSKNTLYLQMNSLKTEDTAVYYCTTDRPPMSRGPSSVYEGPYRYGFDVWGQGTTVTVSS
VL: NFMLTQPHSVSESPGKTVTISCTGSGGNIVDNFVQWHQQRPGSAPRTVIYEDDQRPSGVPDRFSASVDSSSNSGTLSISGLKTEDEADYYCQSYDGANRWVFGGGTKLTVL
notes: as for B7
B9: C0120903 human Alya IgG1 (antibody, V domains shown)
VH: EVQLVQSGAEVKKPGSSMKVSCKASGGTFNSYTINWVRQAPGQGLEWVGGFIPIFGTADYAQKFHGRVAITADESMSTAYMELSSLRSEDTAVYYCARAPLGSEPFDYWGQGTMVTVSS
VL: SYVLTQPPSVSVAPGQTARITCGGNNIGSKSVHWYQQKPGQAPVLVVYDDSDRPSGIPERFSGSNSGNTATLTISRVEAGDEADYYCQVWDSSSDHLVFGGGTKLTVL
notes: as for B7
B10: C0120914 human Alya IgG1 (antibody, V domains shown)
VH: QVQLQESGPGLVKPSETLSLTCTVSGGSVSSGRYDWSWIRQPPGKGLEWIGHIYYTGITDYNPSLRSRVTISADKPKNQFSLKLNSVTAADTAVYYCARGPFFDPWGQGTMVTVSS
VL: QSVLTQPPSVSVAPGQTASLTCGANNIGSKSVQWYQQKPGQAPVLVVYDGSDRPSGIPDRFSGSSSENTATLTISRVEAGDEADYYCQLWDSVTDRPVFGGGTKVTVL
notes: as for B7
B11: C0120906 human Alya IgG1 (antibody, V domains shown)
VH: EVQLVQSGPEVKKPGASVKISCKASGYKLNDPGVHGVSWVRQAPGQGLEWMGWISTLNGDTRYAQKFQGRVTMATDSSTSTIYMDLRSLKSDDTALYYCARDDYTAIFDFWGRGTLVTVSS
VL: QSVLTQPPSVSVAPGQTASITCGGSNIGSQSVHWYQQKPGQAPVLVVYDDSDRPSGIPERFSGSKSGNTASLILSRVEAGDEADYYCQVWDSSTDHHVFGTGTKVTVL
notes: as for B7
B12: mouse 5E3 expressed as human IgG1 Alya (antibody, V domains shown)
VH: QVQLQQPGAELVMPGASVKMSCKASGYTFTDYWMHWVKQRPGQGLEWIGAIDTSDSYTSYNQKFKGKATLTVDESSSTAYMQLSSLTSEDSAVYYCARDYGNFYYYAMDYWGQGTSVTVSS
VL: QAVVTQESALTTSPGETVTLTCRSSTGAVTTSNYANWVQEKPDHLFTGLIGGTNNRAPGVPARFSGSLIGDKAALTITGAQTEDEAIYFCALWYSNHWVFGGGTKLTVL
notes: Mouse variable domains on human IgG1 Alya constant (pEU1.22; 239iCys and S442C, EU numbering); purified, unconjugated; also called 5E3 IgG1 Alya
B13: C0120918 human Alya IgG1 (antibody, V domains shown)
VH: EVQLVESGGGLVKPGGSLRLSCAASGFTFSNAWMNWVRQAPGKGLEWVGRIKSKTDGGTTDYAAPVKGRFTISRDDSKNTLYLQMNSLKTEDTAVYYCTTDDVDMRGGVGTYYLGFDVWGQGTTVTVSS
VL: SYELTQPPSVSVSPGQTARITCSGDALPKQYAYWYQQKPGQAPVLVIYKDSERPSGIPERFSGSSSGTTVTLTISGVQAEDEADYYCQSADSSGTWVFGGGTKVTVL
notes: as for B7

Columns and labels:
[1] = target: T1, human SEMA4A expressed on cells …; assay: cell-based or functional assay
[2] = target: T1, human SEMA4A expressed on cells …; assay: Mirrorball epitope competition on MM.1S cells; competitor: fixed 5E3 mouse IgG1
Source text: The 5E3 epitope competition assay assessed the ability of the un-purified IgGs expressed in a human IgG1 backbone to compete for binding to the mouse 5E3 epitope on human SEMA4A endogenously expressed by MM.1S cells, a human multiple myeloma cell line. The assay utilised a secondary-Alexa Fluor 647 conjugate, 5E3 expressed in a mouse IgG1 (A) backbone (BioLegend®, San Diego, CA, 148402) and a Mirrorball fluorescence cytometer (SPT Labtech, UK). Binding of 5E3 mouse IgG1 to MM.1S cells was measured via an anti-mouse secondary labelled with Alexa Fluor 647 (Invitrogen, A21235) in the presence of a single concentration of each un-purified human IgG1. […] 10 μl undiluted un-purified IgG, contained in Expi293 expression medium (Gibco, UK, A1435101), were added to the assay plate (Greiner Bio-one, UK, 781906), followed by 10 ul of 1.2 nM 5E3 mouse IgG1 and 20 μl MM.1S cell suspension containing 1,500 cells that was spiked with 4 nM anti-mouse Alexa Fluor 647. The assay plate was incubated for 4 hours at room temperature, in the dark prior to reading on a Mirrorball fluorescence cytometer (SPT Labtech, UK) using a 640 nm laser for excitation and measuring emission in the FL-4 channel (650-690 nm). Data was analysed as Count x median mean intensity (x FLU). All dilutions were performed in Hanks' balanced salt solution (Sigma, UK; cat: H8264) containing 0.1% (w/V) BSA (Sigma, UK; cat: A9576). Maximum binding signal was determined by analysing the binding of 5E3 mouse IgG1 to MM.1S cells in the absence of competitor un-purified human IgG1. Background binding signal was determined by analysing the fluorescence generated in the absence of 5E3 mouse IgG1. Data were analysed and graphed using GraphPad Prism software (GraphPad Software, Inc, La Jolla, CA).
Hits from the primary screening were re-formatted into the human Alya IgG1 vector and re-expressed and purified as described in section 4.1. 5E3 epitope competition assay methods are described in section 3.2 and were used to test purified human Alya IgG1s. The purified human Alya IgG1s were diluted to a 4× stock and then serially diluted using 4-fold dilutions to generate a 10 point concentration response curve.

[3] = target: T2, mouse SEMA4A expressed on expi293 cells …; assay: Mirrorball direct binding, dilution series on expi293 cells transiently transfected with mouse SEMA4A, anti-human Alexa Fluor 647
Source text: Hits from the primary screening were re-formatted into the human Alya IgG1 vector and re-expressed and purified as described in section 4.1. In addition, a single clone was identified that contained an Asparagine deamidation motif (Asn Gly) within its VHCDR2. This potential sequence liability was de-risked by synthesising de novo two clonal variant VH genes (Asn Ala and Gln Gly) and cloning these sequences into the human Alya IgG1 expression vector. To determine the specificity profile of each purified human Alya IgG1, a dilution series was tested for binding to human SEMA4A, mouse SEMA4A, cyno SEMA4A, human SEMA4B and mock transfected cells (transient transfections set up in expi 293 cells.) The five assays employed methods described in section 2.3, using the appropriate cells and substituting the un-purified scFv periplasmic preparation with the recombinant human Alya IgG1 dilution series. Data was analysed as Count x median mean intensity (x FLU).

Binder | IC50 (pM), Fab-ZAP cell kill, NCI-H929 [1] [pM] | Max % Cell Kill, Fab-ZAP, NCI-H929 [1] [%] | IC50 [2] [nM] | binding result [3]
B1 | 38 | 78 | 1.1 | binds
B2 | 113 | 58 | 11.3 | binds
B3 | 74 | 74 | 2.1 | binds
B4 | 66 | 76 | 2 | binds
B5 | 52 | 83 | 1.1 | binds
B6 | 119 | 50 | 20.4 | binds
B7 | – | – | – | binds
B8 | – | – | – | binds
B9 | – | – | – | binds
B10 | – | – | – | binds
B11 | – | – | – | binds
B12 | 38 | 89 | 0.3 | binds
B13 | – | – | – | binds
